{
  "source": "patent US12121566B2",
  "about": "“Methods for treating gout” (Horizon Therapeutics USA, Inc., priority 2019, dated 2024)",
  "key": {"[1]": {"tested_on": "patients with chronic gout refractory to conventional therapy", "test": "Open-label extension study", "assay_type": "in vivo, human", "details": "KXX 8 mg every 2 weeks", "method": "Two cases of congestive heart failure exacerbation occurred during the trials in patients receiving treatment with KXX 8 mg every 2 weeks. No cases were reported in placebo-treated patients. Four subjects had exacerbations of pre-existing congestive heart failure while receiving KXX 8 mg every 2 weeks during the open-label extension study.\nStudies were stratified for the presence of tophi. Seventy-one percent (71%) of patients had baseline tophi. All patients were prophylaxed with an oral antihistamine, intravenous corticosteroid and acetaminophen. Patients also received prophylaxis for gout flares with non-steroidal anti-inflammatory drugs (NSAIDs) or colchicine, or both, beginning at least one week before KXX treatment unless medically contraindicated or not tolerated. Patients who completed the randomized clinical trials were eligible to enroll in a 2-year open label extension study."}, "[2]": {"tested_on": "patients with symptomatic gout", "test": "Single-dose, dose-ranging trial: plasma uric acid and plasma uricase activity", "assay_type": "in vivo, human", "excerpt": "In some embodiments, patients or subjects of the present disclosure may have blood samples taken for PK analysis during treatment with KXX, either alone, or co-administered with an immunosuppressive agent, such as AZA. Although limited PK results have been reported in subjects receiving pegloticase, and no PK studies have been performed in subjects weighing ≥120 kg, the present disclosure provides PK analysis in patients receiving KXX treatment, either alone or co-administered with an immunosuppressive agent or therapy. Sundy et al. (JAMA 306(7):711-20, 2011) reported results from 24 subjects with refractory gout who received single doses from 0.5 to 12 mg of pegloticase. PK parameters included plasma uricase activity (pUox) and the plasma urate concentration (pUAc). […] It remains uncertain whether body mass affects drug distribution. Since pegloticase is administered as a single dose regardless of body mass, this is important to assess.\nThe duration of suppression of plasma uric acid appeared to be positively associated with pegloticase dose."}, "[3]": {"tested_on": "patients with chronic gout refractory to conventional therapy", "test": "Adverse reactions in pre-marketing controlled clinical trials of KXX", "assay_type": "in vivo, human", "method": "During the second 3 months of treatment, a lower proportion of pegloticase-treated patients experienced flares than patients receiving placebo. The incidence of flares during this time period was lowest in the group receiving pegloticase 8 mg every 2 weeks than in the group who received pegloticase 8 mg every 4 weeks, as was the incidence of infusion-related reactions (26% with biweekly dosing vs. 40% with the every-4-week dosing regimen). Both infusion reactions (IRs) and gout flares were least common in patients with sustained urate-lowering responses to treatment and those who received bi-weekly treatment. In most pegloticase-treated patients with IRs, a loss of response to pegloticase (return to SUA>6 mg/dL) preceded the time of the first IR (20/21; 95%).\nThe most commonly reported serious adverse reactions from pre-marketing controlled clinical trials were anaphylaxis, which occurred at a frequency of 6.5% in patients treated with KXX 8 mg every 2 weeks, compared to none with placebo; infusion reactions, which occurred at a frequency of 26% in patients treated with KXX 8 mg every 2 weeks, compared to 5% treated with placebo; and gout flares, which were more common during the first 3 months of treatment with KXX compared with placebo. All patients in pre-marketing controlled clinical trials were pre-treated with an oral antihistamine, intravenous corticosteroid and/or acetaminophen to prevent anaphylaxis and infusion reaction.\nThe data described below reflect exposure to KXX in patients with chronic gout refractory to conventional therapy in two replicate randomized, placebo-controlled, double-blind 6-month clinical trials: 85 patients were treated with KXX 8 mg every 2 weeks; 84 patients were treated with KXX 8 mg every 4 weeks; and 43 patients were treated with placebo. These patients were between the ages of 23 and 89 years (average 55 years); 173 patients were male and 39 were female; and 143 patients were White/Caucasian, 27 were Black/African American, 24 were Hispanic/Latino and 18 were all other ethnicities. Common co-morbid conditions among the enrolled patients included hypertension (72%), dyslipidemia (49%), chronic kidney disease (28%), diabetes (24%), coronary artery disease (18%), arrhythmia (16%), and cardiac failure/left ventricular dysfunction (12%).\nDiagnostic criteria of anaphylaxis were skin or mucosal tissue involvement, and, either airway compromise, and/or reduced blood pressure with or without associated symptoms, and a temporal relationship to KXX or placebo injection with no other identifiable cause. Using these clinical criteria, anaphylaxis was identified in 14 (5.1%) of 273 total patients studied in the clinical program of IV KXX. The frequency was 6.5% for the every 2-week dosing regimen (8 of 123 patients), and 4.8% for the 4-week dosing frequency (6 of 126) of KXX. There were no cases of anaphylaxis in patients receiving placebo."}, "dogs": {"tested_on": "dogs", "test": "Animal toxicology in dogs (IV)", "assay_type": "in vivo, dog", "details": "for vacuoles in the spleen, adrenal glands, and heart after recovery: 1-year recovery period; for vacuoles in the liver, duodenum, and jejunum after recovery: 3-month recovery period", "method": "Organs with cytoplasmic vacuoles included the spleen, adrenal gland, liver, heart, duodenum, and jejunum. Vacuoles in the spleen, adrenal glands, and heart persisted after a 1-year recovery period at pegloticase dose (≥1.5 mg/kg in dogs) approximately 5 times the MRHD, but were absent at a dose similar to the MRHD. Vacuoles in the liver, duodenum, and jejunum persisted after a 3-month recovery period at a pegloticase dose (10 mg/kg in dogs) approximately 30 times the MRHD, but were absent at doses less than or equal to 1.5 mg/kg approximately 5 times and similar to the MRHD. The edema and histiocyte infiltration in the aortic outflow tract was absent after recovery periods of 6 and 12 months, respectively.\nVacuoles in the spleen, liver, duodenum, and jejunum were within macrophages and most likely represented phagocytic removal of pegloticase from the circulation. […] In the aortic outflow tract of the heart, vacuoles were in the cytoplasm of endothelial cells in the intimal lining of the aorta. In the adrenal gland, vacuoles were located within cortical cells in the Zona reticularis and Zona fasciculata. The clinical significance of these findings and the functional consequences are unknown."}, "[4]": {"details": "KXX 8 mg every 2 weeks (N = 85)"}},
  "data": [
    {"substance": "pegloticase", "values": [
      {"measurement": "subjects with exacerbations of pre-existing congestive heart failure", "setting": "[1]", "value": "Four"},
      {"measurement": "plasma uric acid versus dose", "setting": "[2]; 0.5, 1, 2, 4, 8 or 12 mg, 24 patients", "value": "decreased with increasing pegloticase dose or concentrations"},
      {"measurement": "duration of sustained decrease in plasma uric acid below 6 mg/dL", "setting": "[2]; single doses of 8 mg and 12 mg, 1-hour intravenous infusion", "value": "more than 300 hours"},
      {"measurement": "frequency of anaphylaxis", "setting": "[3]; 4-week dosing frequency (6 of 126)", "value": 4.8, "unit": "%"},
      {"measurement": "anaphylaxis in total patients studied in the clinical program of IV KXX", "setting": "[3]; 14 of 273 total patients", "value": 5.1, "unit": "%"},
      {"measurement": "patients with infusion reactions", "setting": "[3]; KXX 8 mg every 2 weeks", "value": 26, "unit": "%"},
      {"measurement": "Adverse reaction: Anaphylaxis", "setting": "[3]; [4]", "value": "4 (5%) N (%)"},
      {"measurement": "Adverse reaction: Chest Pain", "setting": "[3]; [4]", "value": "5 (6%) N (%)"},
      {"measurement": "Adverse reaction: Constipation", "setting": "[3]; [4]", "value": "5 (6%) N (%)"},
      {"measurement": "Adverse reaction: Contusion or Ecchymosis", "setting": "[3]; [4]", "value": "9 (11%) N (%)"},
      {"measurement": "Adverse reaction: Gout Flare", "setting": "[3]; [4]", "value": "65 (77%) N (%)"},
      {"measurement": "Adverse reaction: Infusion reaction", "setting": "[3]; [4]", "value": "22 (26%) N (%)"},
      {"measurement": "Adverse reaction: Nasopharyngitis", "setting": "[3]; [4]", "value": "6 (7%) N (%)"},
      {"measurement": "Adverse reaction: Nausea", "setting": "[3]; [4]", "value": "10 (12%) N (%)"},
      {"measurement": "Adverse reaction: Vomiting", "setting": "[3]; [4]", "value": "4 (5%) N (%)"},
      {"measurement": "patients with infusion reactions", "setting": "[3]; KXX 8 mg every 4 weeks", "value": 41, "unit": "%"},
      {"measurement": "cases of congestive heart failure exacerbation", "setting": "[3]; during the trials, KXX 8 mg every 2 weeks", "value": "Two"},
      {"measurement": "frequency of anaphylaxis", "setting": "[3]; every 2 weeks dosing regimen (8 of 123 patients)", "value": 6.5, "unit": "%"},
      {"measurement": "percentage of patients with any gout flare", "setting": "[3]; first 3 months, KXX 8 mg every 2 weeks", "value": 74, "unit": "%"},
      {"measurement": "percentage of patients with any gout flare", "setting": "[3]; first 3 months, KXX 8 mg every 4 weeks", "value": 81, "unit": "%"},
      {"measurement": "infusion reaction manifestation: chest discomfort, frequency", "setting": "[3]; human, in vivo", "value": 9.5, "unit": "%"},
      {"measurement": "infusion reaction manifestation: chest pain, frequency", "setting": "[3]; human, in vivo", "value": 9.5, "unit": "%"},
      {"measurement": "infusion reaction manifestation: dyspnea, frequency", "setting": "[3]; human, in vivo", "value": 7.1, "unit": "%"},
      {"measurement": "infusion reaction manifestation: erythema, frequency", "setting": "[3]; human, in vivo", "value": 9.5, "unit": "%"},
      {"measurement": "infusion reaction manifestation: pruritus, frequency", "setting": "[3]; human, in vivo", "value": 9.5, "unit": "%"},
      {"measurement": "infusion reaction manifestation: urticaria, frequency", "setting": "[3]; human, in vivo", "value": 10.6, "unit": "%"},
      {"measurement": "infusion reactions occurring with the first infusion", "setting": "[3]; human, in vivo", "value": "approximately 3%"},
      {"measurement": "infusion reactions that occurred during the time of infusion", "setting": "[3]; human, in vivo", "value": "approximately 91%"},
      {"measurement": "reactions in patients with glucose-6-phosphate dehydrogenase (G6PD) deficiency", "setting": "[3]; human, in vivo", "value": "Life threatening hemolytic reactions and methemoglobinemia have been reported"},
      {"measurement": "percentage of patients with any gout flare", "setting": "[3]; subsequent 3 months, KXX 8 mg every 2 weeks", "value": 41, "unit": "%"},
      {"measurement": "percentage of patients with any gout flare", "setting": "[3]; subsequent 3 months, KXX 8 mg every 4 weeks", "value": 57, "unit": "%"},
      {"measurement": "vacuoles in the spleen, adrenal glands, and heart after recovery", "setting": "dogs; dose similar to the MRHD", "value": "absent"},
      {"measurement": "vacuoles in the spleen, adrenal glands, and heart after recovery", "setting": "dogs; ≥1.5 mg/kg, approximately 5 times the MRHD", "value": "persisted"},
      {"measurement": "vacuoles in the liver, duodenum, and jejunum after recovery", "setting": "dogs; 10 mg/kg, approximately 30 times the MRHD", "value": "persisted"},
      {"measurement": "vacuoles in the liver, duodenum, and jejunum after recovery", "setting": "dogs; doses less than or equal to 1.5 mg/kg", "value": "absent"},
      {"measurement": "organ findings", "setting": "dogs; IV doses of ≥0.4 mg/kg, similar to and higher than the MRHD", "value": "caused cytoplasmic vacuoles in multiple organs, and edema and histiocyte infiltration in the aortic outflow tract"},
      {"measurement": "edema and histiocyte infiltration in the aortic outflow tract after recovery", "setting": "dogs; recovery periods of 6 and 12 months, respectively", "value": "absent"}
    ]}
  ]
}
